The results in this text go back to publication PMC1540706 (2006).

Sequences and labels used below:
B1: human β2-appendage (700–937) used for ITC (domain or fragment)
chain: IGMAPGGYVAPKAVWLPAVKAKGLEISGTFTHRQGHIYMEMNFTNKALQHMTDFAIQFNKNSFGVIPSTPLAIHTPLMPNQSIDVSLPLNTLGPVMKMEPLNNLQVAVKNNIDVFYFSCLIPLNVLFVEDGKMERQVFLATWKDIPNENELQFQIKECHLNADTVSSKLQNNNVYTIAKRNVEGQDMLYQSLKLTNGIWILAELRIQPGNPNYTLSLKCRAPEVSQYIYQVYDSILKN
B2: human β2-appendage (700–937), top site mutant used for ITC (domain or fragment)
chain: IGMAPGGYVAPKAVWLPAVKAKGLEISGTFTHRQGHIYMEMNFTNKALQHMTDFAIQFNKNSFGVIPSTPLAIHTPLMPNQSIDVSLPLNTLGPVMKMEPLNNLQVAVKNNIDVFYFSCLIPLNVLFVEDGKMERQVFLATWKDIPNENELQFQIKECHLNADTVSSKLQNNNVYTIAKRNVEGQDMLVQSLKLTNGIWILAELRIQPGNPNYTLSLKCRAPEVSQYIYQVYDSILKN
B3: human β2-appendage (700–937) R879A used for ITC (domain or fragment)
chain: IGMAPGGYVAPKAVWLPAVKAKGLEISGTFTHRQGHIYMEMNFTNKALQHMTDFAIQFNKNSFGVIPSTPLAIHTPLMPNQSIDVSLPLNTLGPVMKMEPLNNLQVAVKNNIDVFYFSCLIPLNVLFVEDGKMERQVFLATWKDIPNENELQFQIKECHLNADTVSSKLQNNNVYTIAKANVEGQDMLYQSLKLTNGIWILAELRIQPGNPNYTLSLKCRAPEVSQYIYQVYDSILKN

Test in all cases: ITC
(In general: In ITC the heat of successive injections is recorded.)

Assay [1] deals with Epsin P1.
In assay [2] the target is Epsin P4.
The target of assay [3] is ARH peptide (UniProt Q5SW96).
The target of assay [4] is Eps15 P-long peptide (UniProt P42566).
Assay [5] addresses epsinR peptide (UniProt Q14677).
For assay [6], the target named is B2.
In assay [7] the target is B3.
For assay [8], the target named is T1, human β2-appendage (700–937), side site mutant used for ITC (human, UniProt P63010 700-937).
T1 chain: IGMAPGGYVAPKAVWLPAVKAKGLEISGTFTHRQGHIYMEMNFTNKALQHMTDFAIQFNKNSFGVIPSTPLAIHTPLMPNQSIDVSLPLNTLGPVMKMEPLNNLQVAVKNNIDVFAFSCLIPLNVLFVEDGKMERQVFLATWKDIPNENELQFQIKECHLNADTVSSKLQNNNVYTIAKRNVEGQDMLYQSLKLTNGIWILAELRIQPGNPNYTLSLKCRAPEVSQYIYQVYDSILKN

In assay [9] the target is B1.
Assay [10] has as its target AP2 α-appendage appendage (Mus musculus, UniProt P17427).

Sequence of AP2 α-appendage appendage (P17427 701-938): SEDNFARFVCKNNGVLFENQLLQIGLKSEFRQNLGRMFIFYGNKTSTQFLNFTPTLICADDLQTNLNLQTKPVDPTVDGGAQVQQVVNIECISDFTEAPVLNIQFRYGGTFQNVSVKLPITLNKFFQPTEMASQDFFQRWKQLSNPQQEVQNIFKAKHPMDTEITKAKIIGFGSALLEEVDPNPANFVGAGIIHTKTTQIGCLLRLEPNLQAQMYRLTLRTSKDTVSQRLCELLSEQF

As usually defined, the Kd is a measure of binding affinity in units of concentration. A low value points to tighter binding. Take B1: the dissociation constant (Kd) was found to be 131 µM in assay [1], 160 µM in assay [2], 4.7 µM in [3] and 12 µM in [4]. As for B2, the Kd in assay [5] was found to be 77 µM.

On to B3, for which the affinity in assay [3], expressed as Kd, was 5.5 µM.

SFGDGFADFSTL [Eps15 P-short peptide] showed an equilibrium dissociation constant (Kd) in [6] of 59 µM. With DDDIVFEDFARQRLKGMKDD [β-arrestin P-long peptide], the Kd was 0.17 µM in assay [7] and 1.7 µM in assay [8].

B4: Epsin1-MD (protein)
chain: TGGKEESSLMDLADVFTTPAPPQASDPWGGPASVPTAVPVAAAASDPWGAPAVPPAADPWGGAAPTPASGDPWRPAAPTGPSVDPWGGTPAPAAGEGPTSDPWGSADGGAPVSGPPSSDPWAPAPAFSDPWGGSPAKPSSNGTAVGGFDTEPD
Molecule B4 returned a dissociation constant Kd in [9] of 35 µM.

B5: 6× His human Eps15-MD (530–791) (domain or fragment)
chain: STSSSETANLNEHVEGQSNLESEPIHQESPARSSPELLPSGVTDENEVTTAVTEKVCSELDNNRHSKEEDPFNVDSSSLTGPVADTNLDFFQSDPFVGSDPFKDDPFGKIDPFGGDPFKGSDPFASDCFFRQSTDPFATSSTDPFSAANNSSITSVETLKHNDPFAPGGTVVAASDSATDPFASVFGNESFGGGFADFSTLSKVNNEDPFRSATSSSVSNVVITKNVFEETSVKSEDEPPALPPKIGTPTRPCPLPPGKRSI
For the molecule B5, the dissociation constant Kd in assay [6] was found to be 11 µM; in assay [9] it was 18 µM. As for SFFEDNFVPEIS [amphiphysin DNF 12mer peptide], in assay [10], the Kd came out at 2.5 µM.
